In patent publication US20140356345:

Experiments:
33-mer gliadin peptide [1] = system: T1, 33-mer gliadin peptide
T1 sequence: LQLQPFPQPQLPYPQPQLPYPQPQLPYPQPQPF

33-mer gliadin peptide [2] = biological target: T2, 33-mer gliadin peptide
T2 chain: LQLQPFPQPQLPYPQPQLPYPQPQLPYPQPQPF

pepsin
residual intact 33-mer (1-33) by HPLC-MS, Control T2h (pepsin alone, 1 mg/ml), pH 3 (33-mer gliadin peptide [1]): 95% residual

B1: endopep-40 (protein)
chain: MSRRVTGTILGGLILAMVPFLSTAANAAPQAAPASVSHPFHHSCATVKPGRASCNALVRSDIAQSAATLAHQAAAPSGLSPANLQSAYKLPSSTAGSGQTVAIVDAYDAPTAEADLNVYRSQFGLGACTTANGCFKKVDQNGGTSYPRKDGGWAQEISLDLDMVSAVCPNCKIVLVEAKTNSFANLGTAENTAASLANVISNSYGGSDASDASYGSYYNHPGKAITVSSGDAGYGVEYPASSHYVTAVGGTSLRTASTSRGWSETAWSGAGSGCSAYNTALSGQSGLTGCSRRAVADVSAVADPATGVAVYDSTAYQGQSGWMVFGGTSVAAPIIGGVYGLAANAASIDNNYPYAHTSSLFDVTSGSNGTCTTTKWCTAGTGWDGPTGLGTPNGTGAF
33-mer disappearance by HPLC-MS, 9 uU enzyme, 2 h, pH 3 (33-mer gliadin peptide [2]): complete 33-mer disappearance after 2 h at pH 3 (not shown)
residual intact 33-mer (1-33) by HPLC-MS, T0 (33-mer gliadin peptide [2]): 100% residual
residual intact 33-mer (1-33) by HPLC-MS, T30 + pepsin (1 mg/ml), 2 uU enzyme, pH 3 (33-mer gliadin peptide [2]): 70% residual
residual intact 33-mer (1-33) by HPLC-MS, T30, 2 uU enzyme, pH 3 (33-mer gliadin peptide [2]): 50% residual
residual intact 33-mer (1-33) by HPLC-MS, T2h + pepsin (1 mg/ml), 2 uU enzyme, pH 3 (33-mer gliadin peptide [2]): 30% residual
residual intact 33-mer (1-33) by HPLC-MS, T2h, 2 uU enzyme, pH 3 (33-mer gliadin peptide [2]): 20% residual
proteolysis of gliadin, SDS-PAGE, 5 uU enzyme, pH 3, 37 C (gliadin (Sigma G3375)): cleaved ... into small peptides to almost complete digestion in 2 hours

B2: endopep-140 (protein)
chain: MPDLPTQRRSPRRSRRPAVLARLAGLRVGALVLALAVTTLTLISMPSANAAPAKPVVPHAKASSPTAQGQHPTSRVCRTPGRANEMTCLAMVRDDVIGPKGVQANDAPAGFGPADLLNAYNLPSAGSTETVAIVDAFDNPNAEADLGVYRQQYGLPACTTANGCFKKIDQRGGTSYPPPDAGWAGEIALDIDMVSAICPTCKILLVEADDNYMDNLGTAVNQAVSQGAKFVSNSYGGSEGSDEGQADDAYFHHDGVAITASSGDSGYGASYPAASPYVTSVGGTSLAKDTSSSRGWTESTWNGAGSGCSAYETKPSFQKDTGCARRTIADVSAVADPNTGVAVYNGGWHVYGGTSVSAPIIASVYALGGAPAAGSAPNSFPYDHPADLNDVTSGSNGSCSPAYLCTAGTGYDGPTGLGTPNGIAAFRSGPHAVVTGTVTDGTAPLASAQVKAGDVTATTDGQGHYTLSVPPGTYDVSASKFGYTGKTISGVQVADGQTVTEDFALTAKARVDVSGLVRDGSGHGWPVYATVRVKDQPTAVAYTDPKTGRYTLSLPTDDTYTLQVDPLYPGYTQDSHDVTVTSADVVHDVNVAVDQTTCSAPGYSYHYAGATQPFDGTTAPAGWTVDDKVGNGQTWVFNDPGSRGNKTGGTGGFAVIDSDHYGSGNTQDSTLFSPVTDFSARTHPILSFRSDWYGYTGQAGDLDLSVDGGTTWTNLKHYTASERGPRTETMDLSAAAGKSAVQVRFHFTGKFGYYWQVDDVFLGDRTCDPTSGGLVVGQVTDANTGAGVAGATVTSVDRPAEHATSAATPDDPNLGDGLFWMFSSVTGSHKFTATAGNYDSHDVTVNVAANWATAADIALSAPRLTVTPGAISKTVGWQKAATAALTLKNTGTSPVTAKIGEQPGGSTTATAGAPLQRVKGDFASGRLQQGKASGAKAGVTPYAPPWTAIADYASPIMDNGAVALNGKIYSVAGVDGANVLNKAYAYDPGTQAWTAIAPLATGREAPQATTTGGKLYVTGGWGSTGAAVAKTEIFDPSSGAWSAGADNPKPYAGSGAAVLDGKIYVVGGCLATCGTKDVQVYDPAANSWSSGPAYPENTAWLGCAGIDGKLYCAGGSAAASTKHGYVLDPASGTWSPIADLPIDLWAMGYSAANGKLIVSGGVTNGASTLTNQGFAYDPSANSWTALPNSNNALYRGASACGFYKIGGSLGQFNAVKSGEVLPGYDQCASTADVPWLSEDKTEVTIQPGQSVKVNVTLDANVPAITQPGTYTAQLTVGAKTPYAIPPVAVTMTVNPPGTWGKITGTLTGAGCTGSPAPLTGATLQIDSWAASYTLKTDKNGQYALWLDVRNNPLTLIAAKDGWAPQTRNVKITKLTSTTADFTLKPDHTCS
33-mer disappearance by HPLC-MS, 8 uU enzyme, 2 h, pH 3 (33-mer gliadin peptide [2]): complete 33-mer disappearance after 2 h at pH 3 (not shown)
residual intact 33-mer (1-33) by HPLC-MS, T0 (33-mer gliadin peptide [2]): 100% residual
residual intact 33-mer (1-33) by HPLC-MS, T30 + pepsin (1 mg/ml), 4 uU enzyme, pH 3 (33-mer gliadin peptide [2]): 70% residual
residual intact 33-mer (1-33) by HPLC-MS, T30, 4 uU enzyme, pH 3 (33-mer gliadin peptide [2]): 50% residual
residual intact 33-mer (1-33) by HPLC-MS, T2h + pepsin (1 mg/ml), 4 uU enzyme, pH 3 (33-mer gliadin peptide [2]): 45% residual
residual intact 33-mer (1-33) by HPLC-MS, T2h, 4 uU enzyme, pH 3 (33-mer gliadin peptide [2]): 20% residual
proteolysis of gliadin, SDS-PAGE, 5 uU enzyme, pH 3, 37 C (gliadin (Sigma G3375)): cleaved ... into small peptides to almost complete digestion in 2 hours
